In patent publication US20150297458A1, “RAPID RECONSTITUTION PACKAGES FOR MIXING AND DELIVERY OF DRUGS” (Massachusetts Institute of Technology, priority 2012, published 2015):

Tests used:
[1] = ELISA stability characterization of tPA after storage in vial, solution or RRP; format: physicochemical
Method: RRPs were initially kept at 20° C., and subsequently subjected to a fixed wall temperature of 65° C. for 3 hours. Samples were kept in 6 different storage conditions for 24 hours prior to assay preparation: (1) Standard Cathflo Activase lyophilized in glass vial at 20° C.; (2) Cathflo Activase reconstituted in Millipore filtered water and kept in glass vial at 20° C.; (3) lyophilized Cathflo Activase loaded into RRPs and kept at 20° C.; (4) Cathflo Activase lyophilized in glass vial at 65° C.; (5) Cathflo Activase reconstituted in Millipore filtered water and stored in glass vial at 65° C., and (6) Cathflo Activase loaded into RRP and kept at 65° C. After 24 hours each sample in lyophilized form, including those stored in the RRP, was reconstituted in 2 mL Millipore water, and apportioned for subsequent use in ELISA, UV-Vis and HPLC assays.
Stability experiments were performed to characterize and compare the RRP with standard vials at various storage conditions. ELISA assays were used to test for stability of samples (Human tPA Platinum ELISA Kit, eBioscience, Inc.) that underwent two temperature conditions, T=20, 65° C. HPLC assays were not sufficient in assaying stability for tPA as the low pH buffer required denatured tPA regardless of conformation or partial denaturation already induced by the storage condition.
The samples to be tested were injected into each ELISA well and left to incubate. After a wash step, a second antibody, horseradish peroxidase (HRP)-conjugated anti-tPA, was injected into each sample well. The HRP-conjugated anti-tPA bound onto the opposing side of the tPA molecule already bound onto the plate-fixed antibody. After a second wash step, a color inducing substrate (TMB substrate) was then injected into the wells, which bound onto the HRP to induce a measureable gradient representing the amount of tPA bound. In order to prevent oversaturation of the antibodies, the samples were diluted to 10 ng/mL to fall within the assay sensitivity range of 2 pg/mL-10 ng/mL. Optical signal intensity from assay plates were measured with spectrophotometer at wavelength 450 nm (PowerWave HT Microplate Spectrophotomer, BioTek Instruments, Inc.). Each sample was normalized against a calibration curve derived from a 5-parameter logistic fit of tPA standards ran concurrently with the samples.

[2] = cited from earlier work

Tissue Plasminogen Activator [tPA]
stability by ELISA ([1]; all samples (solid, liquid, and RRP) at 20° C., over 24 hours): stability preservation | average activity retained (ELISA) ([1]; lyophilized in standard glass vial at 65° C., 24 hours): 81.6% | total initial drug stability retained, average (ELISA) ([1]; lyophilized, loaded into RRP, kept at 65° C., 24 hours): 86.3% | activity expressed, in average of the standard activity average (ELISA) ([1]; stored in reconstituted form within glass vials at 65° C., 24 hours): 39.3% | stability time in solution (liquid form) [2]: up to 8 hours
